According to patent US20250066499A1 (SUNSHINE GUOJIAN PHARMACEUTICAL SHANGHAI, published 2025):

Tests used:
[1] = molecular target: T1, CD73 protein on the surface of tumor cells (human, UniProt P21589 27-549); assay: flow cytometry on A375 cells
T1 construct: whole, on cells; also called CD73 on H1975 cells; CD73 on MDA-MB-231 cells
T1 sequence (looked up): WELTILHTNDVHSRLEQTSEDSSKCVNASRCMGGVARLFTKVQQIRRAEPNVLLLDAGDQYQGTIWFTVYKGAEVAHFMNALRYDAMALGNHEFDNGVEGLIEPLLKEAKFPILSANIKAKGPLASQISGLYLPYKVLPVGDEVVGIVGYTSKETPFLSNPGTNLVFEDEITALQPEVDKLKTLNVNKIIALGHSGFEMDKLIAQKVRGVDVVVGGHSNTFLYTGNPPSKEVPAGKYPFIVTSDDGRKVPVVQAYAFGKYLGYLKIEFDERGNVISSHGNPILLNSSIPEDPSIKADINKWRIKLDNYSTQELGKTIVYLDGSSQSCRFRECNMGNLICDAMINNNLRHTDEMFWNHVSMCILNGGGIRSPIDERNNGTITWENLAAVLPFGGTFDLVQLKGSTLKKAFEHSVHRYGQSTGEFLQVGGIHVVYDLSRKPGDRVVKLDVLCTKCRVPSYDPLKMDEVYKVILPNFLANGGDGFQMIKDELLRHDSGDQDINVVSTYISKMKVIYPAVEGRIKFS
Procedure: MDA-MB-231 cells (triple-negative breast cancer), H292 cells (human lung cancer cells), and A375 cells (human malignant melanoma cells), all in their logarithmic growth phase, were collected respectively. The cells were washed once with RPMI-1640 basic medium and then adjusted to a cell concentration of 2.0×10⁶ cells/mL in RPMI-1640 basic medium containing 1% BSA (antibody diluent). The antibodies to be tested were diluted in a 3-fold gradient using the antibody diluent, and 100 μL of each concentration of the test antibodies was mixed with 100 μL of cells in a 96-well cell culture plate and incubated at 4° C. for 1 hour (the maximum working concentration of the test antibodies was 500 nM, with 1×10⁵ target cells per well). The cells were washed twice with PBS to remove unbound test antibodies. Then, the cells were mixed with 200 μL of 5 μg/mL FITC-labeled goat anti-human IgG-Fc secondary antibody and incubated at 4° C. for 30 minutes. The cells were washed twice again with PBS to remove unbound secondary antibodies, and finally, the cells were resuspended in 200 μL of PBS. The binding affinity of the test antibodies to the cells was determined using a flow cytometer.

human CD73-His protein [2] = molecular target: T2, human CD73-His protein (human, UniProt P21589 27-549); assay: ELISA, biotinylated CD73-His on streptavidin plate
T2 construct: Expressed in HEK-293F with a signal peptide that is not specified; In the ELISAs it was biotinylated with EZ-Link NHS-Biotin (CD73-biotin) and captured on streptavidin; in SPR and the enzyme assay it was used as CD73-His; also called CD73-his antigen; CD73-biotin
T2 sequence: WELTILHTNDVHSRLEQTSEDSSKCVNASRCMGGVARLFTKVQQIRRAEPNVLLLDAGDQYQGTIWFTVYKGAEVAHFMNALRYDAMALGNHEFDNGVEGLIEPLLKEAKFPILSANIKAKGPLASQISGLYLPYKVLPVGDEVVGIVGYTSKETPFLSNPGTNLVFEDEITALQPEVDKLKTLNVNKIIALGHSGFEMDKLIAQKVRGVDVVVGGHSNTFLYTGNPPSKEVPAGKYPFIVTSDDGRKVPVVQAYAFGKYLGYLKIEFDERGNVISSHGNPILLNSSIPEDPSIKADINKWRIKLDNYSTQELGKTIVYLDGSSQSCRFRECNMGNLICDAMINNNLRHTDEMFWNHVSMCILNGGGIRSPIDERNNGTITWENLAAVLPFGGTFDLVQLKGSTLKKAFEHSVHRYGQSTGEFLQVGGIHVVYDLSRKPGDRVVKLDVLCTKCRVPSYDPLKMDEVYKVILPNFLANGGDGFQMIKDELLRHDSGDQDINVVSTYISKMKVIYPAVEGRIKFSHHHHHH
Procedure: The ELISA plates were coated with SA protein diluted to 1.5 μg/mL in coating buffer (50 mM carbonate coating buffer, pH 9.6) and incubated overnight at 4° C. The supernatant was discarded, and the plates were washed three times with PBST. Then, 5% skimmed milk powder prepared with PBS was added for blocking and the plates were incubated for 2 h at 37° C. After washing the plates once with PBST, CD73-biotin protein (prepared by biotinylating CD73-His protein according to the EZ-Link NHS-Biotin Reagent instructions) was diluted to 0.5 μg/mL and added at 100 μL/well for incubation at room temperature for 1 h. The plates were washed three times with PBST, and the prepared murine-derived monoclonal antibodies against human CD73 were serially diluted with 1% BSA buffer prepared with PBST and added to the ELISA plates at 100 μl/well. The plates were incubated at 37° C. for 1 h. After washing the plates three times with PBST, HRP-labeled goat anti-mouse IgG secondary antibody was added and the plates were incubated for 30 min at 37° C. After washing the plates three times with PBST, the residual droplets were patted dry on absorbent paper as much as possible. Then, 100 μl of TMB color developing solution was added to each well, and the plates were incubated in the dark at room temperature for 5 min for color development. Subsequently, 50 μl of 2M H₂SO₄ stop solution was added to each well to terminate the substrate reaction. The OD values were read at 450 nm using a multimode microplate reader to analyze the binding ability of the tested antibodies to the target antigen human CD73-His.
The binding affinity of various humanized antibodies to human CD73-his protein was measured with reference to Example 3.

human CD73-His protein [3] = molecular target: T2, human CD73-His protein; assay: SPR Biacore 8K, antibody captured on Protein A/G, CD73-his in flow, 1:1 model
Procedure: Antibodies to be tested were captured using a chip covalently coupled with Protein A/G, with the following operational parameters: antibody concentration of 2 μg/mL, contact time of 75 seconds, flow rate of 10 μL/min, and regeneration contact time of 30 seconds. The CD73-his antigen was diluted in HBS-EP pH 7.4 buffer, with the highest concentration being 100 nM, and diluted in a 2-fold gradient down to 0.78 nM. Duplicate wells and a 0 concentration point were set up. 6M guanidine hydrochloride solution was used as the regeneration buffer. Using the Biacore 8K, the samples were injected with the following parameters: binding time of 180 seconds, dissociation time of 900 seconds, flow rate of 30 μL/min, and regeneration contact time of 30 seconds. After the procedure was completed, the Biacore 8K Evaluation Software was used to analyze the data according to the “1:1 binding kinetics model,” yielding the binding kinetics parameters of each antibody to CD73.

| Binder | EC50 [1] | EC50 (human CD73-His protein [2]) | Kd (human CD73-His protein [3]) | koff (human CD73-His protein [3]) | kon (human CD73-His protein [3]) |
| --- | --- | --- | --- | --- | --- |
| 56B10-HuV31 (antibody, human IgG4, V domains shown, Humanized) VH: QVQLQQSGAEVKKPGASVKVSCKASGYTFTRYYIYWVRQRPGQGLEWIGWIYPGNFNTKYNEKFKGRATLTADTSASTAYMELSSLTSEDTAVYYCARDVYDYAGFAYWGQGTLVTVSS VL: DIQLTQSPSFLSASVGDRVTITCKASQGVATAVAWYQQKPGQSPKLLIYWASTRHTGVPDRFSGSGSGTEFTLTISSLQPEDFATYYCQQYSSYPWTFGQGTKVEIK | 1.27 nM | 0.079 nM | 1.89 nM | 0.000376 s⁻¹ | 199000 M⁻¹ s⁻¹ |
| 48A11-HuV33 (antibody, human IgG4, V domains shown, Humanized) VH: QVQLVQSGAEVKKPGASVKVSCKASGYTFTSYWMHWVRQAPGQGLEWIGEINPSIGRTNYNEKFKSRVTLTRDTSTSTAYMELSSLRSEDTAVYYCARRVYGTMDYWGQGTLVTVSS VL: DIQMTQSPSSLSASVGDRVTITCKASQDINSYLSWFQQKPGKSPKLLIYRANIWVDGVPSRFSGSGSGQDYTFTISSLQPEDIATYYCLQYDELYTFGQGTKVEIK | 0.789 nM | 0.069 nM | 2.26 nM | 0.000381 s⁻¹ | 168000 M⁻¹ s⁻¹ |
